Here are results for twelve molecules from US6506874.

T1: human IGFBP-1 (human, UniProt P08833 26-259)
T1 construct: Secreted recombinant protein
T1 sequence (looked up): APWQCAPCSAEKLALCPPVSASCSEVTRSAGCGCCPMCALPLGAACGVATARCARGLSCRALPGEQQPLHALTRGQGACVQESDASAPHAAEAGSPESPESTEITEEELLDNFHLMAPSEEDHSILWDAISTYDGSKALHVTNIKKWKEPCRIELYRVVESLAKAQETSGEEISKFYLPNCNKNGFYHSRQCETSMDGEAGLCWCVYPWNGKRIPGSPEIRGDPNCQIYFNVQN

B1: IGF-I D12A (on G1S-A70V) displayed on phage (ligand)
chain: SPETLCGAELVAALQFVCGDRGFYFNKPTGYGSSSRRAPQTGIVDECCFRSCDLRRLEMYCAPLKPAKSV
notes: not shown: Display partner: M13 gene III protein fragment (residues 249-406) and the junction to it
B2: IGF-I D45A (on G1S-A70V) displayed on phage (ligand)
chain: B1 chain with A12D, D45A
notes: not shown: M13 gene III fragment (residues 249-406) used as phage-display carrier, and its junction to IGF-I
B3: IGF-I P2A (on G1S-A70V) displayed on phage (ligand)
chain: B1 chain with P2A, A12D
notes: as for B2
B4: IGF-I G30A (on G1S-A70V) displayed on phage (ligand, not shown: large carriers)
chain: B1 chain with A12D, G30A
B5: IGF-I S33A (on G1S-A70V) displayed on phage (ligand, not shown: large carriers)
chain: B1 chain with A12D, S33A
B6: IGF-I S34A (on G1S-A70V) displayed on phage (ligand, not shown: large carriers)
chain: B1 chain with A12D, S34A
B7: IGF-I P28A (on G1S-A70V) displayed on phage (ligand, not shown: large carriers; small tags and cut ends)
chain: B1 chain with A12D, P28A
B8: IGF-I Y31A (on G1S-A70V) displayed on phage (ligand, not shown: large carriers)
chain: B1 chain with A12D, Y31A
B9: IGF-I G32A (on G1S-A70V) displayed on phage (ligand, not shown: large carriers)
chain: B1 chain with A12D, G32A
B10: IGF-I E9A (on G1S-A70V) displayed on phage (ligand, not shown: large carriers)
chain: B1 chain with E9A, A12D
modifications: disulfide (positions not given here); not fully specified; also: displayed on M13 phage as gene III fusion
B11: IGF-I T29A (on G1S-A70V) displayed on phage (ligand, not shown: large carriers)
chain: B1 chain with A12D, T29A
B12: IGF-I G7A (on G1S-A70V) displayed on phage (ligand, not shown: large carriers)
chain: B1 chain with G7A, A12D
modifications: disulfide (positions not given here); not fully specified; also: displayed on M13 phage as gene III fusion

The IC50 is the concentration needed to halve the response being measured.

Changes are numbered by the printed parent chain. Numbers in names are those of the source.

The first assay addresses T1, human IGFBP-1. The assay is described as follows: competitive phage ELISA. On the procedure:
(§1) Phage particles were harvested and resuspended in PBS buffer as described in Lowman, H. B., "Phage Display of Peptide Libraries on Protein Scaffolds," in Cabilly, S. (ed.), *Combinatorial Peptide Library Protocols* (Humana Press Inc.: Totowa, N.J., 1998), pp. 249–264. Then phage concentrations were normalized to yield a maximal ELISA signal of 0.2–0.4 for each mutant (Lowman, in Cabilly, S. (ed.), supra). Threefold serial dilutions of soluble competitor were prepared on non-absorbent microtiter plates (Nunc, F, 96 wells) with binding buffer (0.5% TWEEN™ 20/PBS) containing phage at the previously-determined concentrations. The dilution range of competitor protein extended over six orders of magnitude, starting at 5 μM for IGFBP-1 and 500 nM for IGFBP-3. After blocking, the plates containing immobilized target were washed with 0.05% TWEEN™ PBS buffer and subsequently incubated with 80 μl/well of the premixed phage-competitor solutions for 1 hour at room temperature. […] Numbers in Table I represent mean ±standard deviation of individually assessed $IC50$ values.
(§2) At least two different clones of every mutant were tested.
Turning to B1, the “fold increase in binding” value was approximately 2 fold.
As for B2, the “fold increase in binding” value is approximately 2 fold.

The target in a further assay is T1, human IGFBP-1. The assay is described as follows: competitive phage ELISA, soluble IGFBP-1. As for the experimental part: as §1, §2
(In general: ELISA stands for enzyme-linked immunosorbent assay.)
For B3, the IC50 came to 11 nM.
The same measure, in the same setting: for B4 the value was 7.1 nM; for B5, 9.1 nM; for B6, 9.5 nM.
Regarding B7, the IC50 was 9.3 nM.
Still for that read-out and setting: for B8 the value was 6.8 nM; for B9, 10.9 nM.
As to B10, the half-inhibitory concentration (IC50) is 8.6 nM.
Same read-out and setting: the result for B11 reads 7.3 nM.

The next assay deals with T2, recombinant human IGFBP-3 (human, UniProt P17936 28-291).
T2 construct: Secreted recombinant protein
T2 sequence (P17936 28-291 limits assumed): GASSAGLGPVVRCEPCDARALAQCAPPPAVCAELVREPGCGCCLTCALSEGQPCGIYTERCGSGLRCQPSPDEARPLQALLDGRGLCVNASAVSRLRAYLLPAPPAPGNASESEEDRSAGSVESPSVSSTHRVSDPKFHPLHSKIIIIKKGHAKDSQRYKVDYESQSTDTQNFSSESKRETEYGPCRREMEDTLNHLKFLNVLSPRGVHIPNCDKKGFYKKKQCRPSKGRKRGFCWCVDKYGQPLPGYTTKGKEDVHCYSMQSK
The assay is described as follows: competitive phage ELISA, soluble IGFBP-3. On the procedure:
as §1, §2
On to B3, for which the concentration for half-maximal inhibition (IC50) was found to be 0.81 nM.
With B4, the IC50 was 0.58 nM.
Regarding B5, the 50% inhibitory concentration (IC50) came to 1.01 nM.
For B6, the IC50 is 1.65 nM.
For B7, the IC50 is 1.41 nM.
For the molecule B8, the IC50 was determined as 0.73 nM.
Regarding B9, the half-inhibitory concentration (IC50) amounted to 0.76 nM.
B12: the IC50 was found to be 4.58 nM.
Same read-out and setting: the result for B10 reads 1.32 nM; that for B11, 1.23 nM.
